pKd: −log10 of the molar value.
Assays:
HLA-B*57:01 [1] = assay: IEDB peptide-MHC binding, purified MHC/competitive/fluorescence; filed as Kd, often an IC50 or EC50 that approximates it; ≥ and ≤ were set here for values at or beyond the usual limits of such assays
HLA-B*51:01 = assay: as above
HLA-A*26:01 = assay: as above
HLA-A*69:01 [2] = assay: as above
HLA-A*02:01 [3] = assay: as above
HLA-B*39:01 = assay: as above
HLA-B*15:17 = assay: as above
HLA-B*46:01 [4] = assay: as above
HLA-B*18:01 [5] = assay: as above
HLA-A*03:01 = assay: IEDB peptide-MHC binding, purified MHC/direct/fluorescence; filed as Kd, often an IC50 or EC50 that approximates it; ≥ and ≤ were set here for values at or beyond the usual limits of such assays
HLA-A*11:01 = assay: as above
HLA-A*02:03 [6] = assay: as above
HLA-A*02:12 [7] = assay: as above
HLA-A*68:02 [8] = assay: as above
HLA-A*23:01 = assay: as above
HLA-A*02:19 [9] = assay: as above
HLA-A*02:11 = assay: as above
HLA-A*24:03 [10] = assay: as above
HLA-A*29:02 = assay: as above
HLA-A*02:16 = assay: as above
HLA-B*27:03 = assay: IEDB peptide-MHC binding, purified MHC/competitive/fluorescence; filed as Kd, often an IC50 or EC50 that approximates it; ≥ and ≤ were set here for values at or beyond the usual limits of such assays
HLA-B*57:01 [11] = assay: IEDB peptide-MHC binding, purified MHC/direct/fluorescence; filed as Kd, often an IC50 or EC50 that approximates it; ≥ and ≤ were set here for values at or beyond the usual limits of such assays; conditions: source organism: Orthohantavirus andesense
HLA-B*40:01 = assay: as above; conditions: source organism: Orthohantavirus andesense
HLA-A*69:01 [12] = assay: as above; conditions: source organism: Orthohantavirus andesense
HLA-B*27:05 = assay: as above; conditions: source organism: Orthohantavirus andesense
HLA-B*48:01 = assay: as above; conditions: source organism: Orthohantavirus andesense
HLA-A*02:01 [13] = assay: as above; conditions: source organism: Orthohantavirus andesense
HLA-B*46:01 [14] = assay: as above; conditions: source organism: Orthohantavirus andesense
HLA-A*31:01 = assay: as above; conditions: source organism: Orthohantavirus andesense
HLA-B*44:02 = assay: as above; conditions: source organism: Orthohantavirus andesense
HLA-B*08:01 = assay: as above; conditions: source organism: Hantavirus Monongahela-3
HLA-B*58:01 = assay: as above; conditions: source organism: Orthohantavirus andesense
HLA-B*18:01 [15] = assay: as above; conditions: source organism: Orthohantavirus andesense
HLA-B*07:02 = assay: as above; conditions: source organism: Orthohantavirus andesense
HLA-B*15:01 [16] = assay: as above; conditions: source organism: Orthohantavirus andesense
HLA-A*01:01 = assay: as above; conditions: source organism: Orthohantavirus andesense
HLA-A*02:03 [17] = assay: IEDB peptide-MHC binding, purified MHC/competitive/fluorescence; filed as Kd, often an IC50 or EC50 that approximates it; ≥ and ≤ were set here for values at or beyond the usual limits of such assays; conditions: source organism: Vibrio vulnificus YJ016
HLA-A*02:12 [18] = assay: as above; conditions: source organism: Vibrio vulnificus YJ016
HLA-A*68:02 [19] = assay: as above; conditions: source organism: Vibrio vulnificus YJ016
HLA-A*02:19 [20] = assay: as above; conditions: source organism: Vibrio vulnificus YJ016
HLA-A*24:03 [21] = assay: as above
HLA-B*15:01 [22] = assay: as above; conditions: source organism: Vibrio vulnificus YJ016
[23] = source organism: Rickettsia bellii RML369-C
[24] = source organism: Rickettsia bellii OSU 85-389
[25] = source organism: Giardia lamblia ATCC 50803
[26] = source organism: Four Corners hantavirus
[27] = source organism: Orthohantavirus andesense
[28] = source organism: Limestone Canyon virus
[29] = source organism: Vibrio vulnificus YJ016

In the case of AKIALAVYK, the pKd (HLA-B*57:01 [1]; [23]) was ≤ 4.70, the pKd (HLA-B*51:01; [23]) was ≤ 4.70 and the pKd (HLA-A*26:01; [23]) was ≤ 4.70. For the same sequence, the pKd (HLA-A*69:01 [2]; [23]) was ≤ 4.70, the pKd (HLA-A*02:01 [3]; [23]) was ≤ 4.70 and the pKd (HLA-B*39:01; [23]) was ≤ 4.70. For the same sequence, the pKd (HLA-B*15:17; [23]) was ≤ 4.70, the pKd (HLA-B*46:01 [4]; [23]) was ≤ 4.70 and the pKd (HLA-B*18:01 [5]; [23]) was ≤ 4.70. The pKd (HLA-A*03:01; [24]) was ≤ 4.70, the pKd (HLA-A*11:01; [24]) was 6.37 and the pKd (HLA-A*02:03 [6]; [24]) was ≤ 4.70. For the same sequence, the pKd (HLA-A*02:12 [7]; [24]) was ≤ 4.70, the pKd (HLA-A*68:02 [8]; [24]) was ≤ 4.70 and the pKd (HLA-A*23:01; [24]) was ≤ 4.70. The pKd (HLA-A*02:19 [9]; [24]) was ≤ 4.70, the pKd (HLA-A*02:11; [24]) was ≤ 4.70 and the pKd (HLA-A*24:03 [10]; [24]) was ≤ 4.70. The pKd (HLA-A*29:02; [24]) was ≤ 4.70 and the pKd (HLA-A*02:16; [24]) was ≤ 4.70.

For APDGFYPFK, the pKd (HLA-B*27:03; [25]) was ≤ 4.70, the pKd (HLA-B*57:01 [1]; [25]) was ≤ 4.70 and the pKd (HLA-B*51:01; [25]) was ≤ 4.70. The pKd (HLA-A*26:01; [25]) was ≤ 4.70, the pKd (HLA-A*69:01 [2]; [25]) was ≤ 4.70 and the pKd (HLA-A*02:01 [3]; [25]) was ≤ 4.70. For the same sequence, the pKd (HLA-B*39:01; [25]) was ≤ 4.70, the pKd (HLA-B*15:17; [25]) was ≤ 4.70 and the pKd (HLA-B*46:01 [4]; [25]) was ≤ 4.70. The pKd (HLA-B*18:01 [5]; [25]) was ≤ 4.70, the pKd (HLA-A*03:01; [25]) was ≤ 4.70 and the pKd (HLA-A*11:01; [25]) was 6.61. For the same sequence, the pKd (HLA-A*02:03 [6]; [25]) was ≤ 4.70, the pKd (HLA-A*02:12 [7]; [25]) was ≤ 4.70 and the pKd (HLA-A*68:02 [8]; [25]) was ≤ 4.70. The pKd (HLA-A*23:01; [25]) was ≤ 4.70, the pKd (HLA-A*02:19 [9]; [25]) was ≤ 4.70 and the pKd (HLA-A*02:11; [25]) was ≤ 4.70. The pKd (HLA-A*24:03 [10]; [25]) was ≤ 4.70, the pKd (HLA-A*29:02; [25]) was ≤ 4.70 and the pKd (HLA-A*02:16; [25]) was ≤ 4.70.

In the case of EKLKKKSAF, the pKd (HLA-B*27:03; [26]) was ≤ 4.70, the pKd (HLA-A*26:01; [26]) was ≤ 4.70 and the pKd (HLA-B*39:01; [26]) was ≤ 4.70. The pKd (HLA-B*15:17; [26]) was ≤ 4.70, the pKd (HLA-B*57:01 [11]) was ≤ 4.70 and the pKd (HLA-B*40:01) was ≤ 4.70. For the same sequence, the pKd (HLA-A*03:01; [27]) was ≤ 4.70, the pKd (HLA-A*69:01 [12]) was ≤ 4.70 and the pKd (HLA-B*27:05) was ≤ 4.70. The pKd (HLA-B*48:01) was ≤ 4.70, the pKd (HLA-A*02:01 [13]) was ≤ 4.70 and the pKd (HLA-B*46:01 [14]) was ≤ 4.70. The pKd (HLA-A*31:01) was ≤ 4.70, the pKd (HLA-B*44:02) was ≤ 4.70 and the pKd (HLA-A*11:01; [27]) was ≤ 4.70. For the same sequence, the pKd (HLA-B*08:01) was ≤ 5.30, the pKd (HLA-B*58:01) was ≤ 4.70 and the pKd (HLA-A*02:12 [7]; [28]) was ≤ 4.70. The pKd (HLA-B*18:01 [15]) was ≤ 4.70, the pKd (HLA-A*68:02 [8]; [28]) was ≤ 4.70 and the pKd (HLA-A*23:01; [28]) was ≤ 4.70. For the same sequence, the pKd (HLA-B*07:02) was ≤ 4.70, the pKd (HLA-A*02:19 [9]; [28]) was ≤ 4.70 and the pKd (HLA-A*24:03 [10]; [28]) was ≤ 4.70. The pKd (HLA-B*15:01 [16]) was ≤ 4.70, the pKd (HLA-A*29:02; [27]) was ≤ 4.70 and the pKd (HLA-A*01:01) was ≤ 4.70.

With GMWCVLASR the pKd (HLA-B*27:03; [29]) was ≤ 4.70, the pKd (HLA-B*57:01 [1]; [29]) was ≤ 4.70 and the pKd (HLA-B*51:01; [29]) was ≤ 4.70. The pKd (HLA-A*26:01; [29]) was ≤ 4.70, the pKd (HLA-A*69:01 [2]; [29]) was ≤ 4.70 and the pKd (HLA-A*02:01 [3]; [29]) was ≤ 4.70. For the same sequence, the pKd (HLA-B*39:01; [29]) was ≤ 4.70, the pKd (HLA-B*15:17; [29]) was ≤ 4.70 and the pKd (HLA-B*46:01 [4]; [29]) was ≤ 4.70. For the same sequence, the pKd (HLA-A*02:03 [17]) was ≤ 4.70, the pKd (HLA-A*02:12 [18]) was 6.03 and the pKd (HLA-B*18:01 [5]; [29]) was ≤ 4.70. The pKd (HLA-A*68:02 [19]) was ≤ 4.70, the pKd (HLA-A*02:19 [20]) was ≤ 4.70 and the pKd (HLA-A*24:03 [21]; [29]) was ≤ 4.70. The pKd (HLA-B*15:01 [22]) was ≤ 4.70.

With HWMDATFNI the pKd (HLA-B*27:03; source organism: Choclo virus) was ≤ 4.70, the pKd (HLA-B*57:01 [1]; source organism: Choclo virus) was ≤ 4.70 and the pKd (HLA-B*51:01; source organism: Choclo virus) was ≤ 4.70. The pKd (HLA-A*26:01; source organism: Choclo virus) was ≤ 4.70, the pKd (HLA-A*69:01 [2]; source organism: Choclo virus) was ≤ 4.70 and the pKd (HLA-A*02:01 [3]; source organism: Choclo virus) was ≤ 4.70. The pKd (HLA-B*39:01; source organism: Choclo virus) was ≤ 4.70, the pKd (HLA-B*15:17; source organism: Choclo virus) was ≤ 4.70 and the pKd (HLA-B*46:01 [4]; source organism: Choclo virus) was ≤ 4.70. The pKd (HLA-B*18:01 [5]; source organism: Choclo virus) was ≤ 4.70, the pKd (HLA-A*24:03 [21]; source organism: Choclo virus) was ≥ 10.00 and the pKd (HLA-A*03:01; source organism: Choclo virus) was ≤ 4.70. The pKd (HLA-A*02:03 [6]; source organism: Choclo virus) was ≤ 4.70, the pKd (HLA-A*02:12 [7]; source organism: Choclo virus) was ≤ 4.70 and the pKd (HLA-A*02:19 [9]; source organism: Choclo virus) was ≤ 4.70. For the same sequence, the pKd (HLA-A*02:11; source organism: Choclo virus) was ≤ 4.70 and the pKd (HLA-A*02:16; source organism: Choclo virus) was ≤ 4.70.

From the Immune Epitope Database (IEDB)
